The source of these data is PMC9352680, “A comprehensive thermodynamic model for RNA binding by the Saccharomyces cerevisiae Pumilio protein PUF4”.

Changes are numbered by the printed parent chain. Numbers in names are those of the source.

To fix the notation:
T1: PUF4 RNA-binding domain (Saccharomyces cerevisiae, UniProt P25339 537-888)
T1 sequence: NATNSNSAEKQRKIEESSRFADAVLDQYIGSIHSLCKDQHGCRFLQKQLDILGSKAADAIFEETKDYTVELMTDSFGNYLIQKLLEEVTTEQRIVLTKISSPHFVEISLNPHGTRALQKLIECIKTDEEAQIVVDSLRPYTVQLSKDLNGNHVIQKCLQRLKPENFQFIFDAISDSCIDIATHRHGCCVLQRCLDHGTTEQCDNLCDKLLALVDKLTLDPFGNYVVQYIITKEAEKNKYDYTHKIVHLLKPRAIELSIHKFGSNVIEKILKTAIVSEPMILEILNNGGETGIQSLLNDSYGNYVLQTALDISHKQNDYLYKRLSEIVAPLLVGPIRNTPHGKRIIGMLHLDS

B1: Ie_S1_P5E.1_K5.1_C5.1_H5.1_A5.1_F5.1_[+8TTCC]_T5.1 (ssRNA)
RNA: UCUCUUUGUAUUAUUUCCUAUCUCUU
B2: Ie_S1_P5E.1_K5.1_C5.1_H5.1_A5.1_[+6CCCT]_F5.1_T5.1 (ssRNA)
RNA: UCUCUUUGUAUUCCCUAUUAUCUCUU
B3: Ie_S1_P5E.1_K5.1_C5.1_H5.1_A5.1_[+7CC]_F5.1_T5.1 (ssRNA)
RNA: UCUCUUUGUAUUACCUUAUCUCUU
B4: Ie_S1_P5E.1_K5.1_C5.1_H5.1_A5.1_[+6CCTC]_F5.1_T5.1 (ssRNA)
RNA: UCUCUUUGUAUUCCUCAUUAUCUCUU
B5: Ie_S1_P5E.1_K5.1_C5.1_H5.1_A5.1_F5.1_[+8TCTCT]_T5.1 (ssRNA)
RNA: UCUCUUUGUAUUAUUCUCUUAUCUCUU
B6: Ie_S1_P5E.1_K5.1_C5.1_H5.1_A5.1_[+7CTCT]_F5.1_T5.1 (ssRNA)
RNA: UCUCUUUGUAUUACUCUUUAUCUCUU
B7: Ie_S1_P5E.1_K5.1_C5.1_H5.1_A5.1_F5.1_[+8TCTC]_T5.1 (ssRNA)
RNA: UCUCUUUGUAUUAUUCUCUAUCUCUU
B8: Ie_S1_P5E.1_K5.1_C5.1_H5.1_A5.1_[+6CCTCT]_F5.1_T5.1 (ssRNA)
RNA: UCUCUUUGUAUUCCUCUAUUAUCUCUU
B9: Ie_S1_P5E.1_K5.1_C5.1_H5.1_A5.1_F5.1_[+8T]_T5.1 (ssRNA)
RNA: UCUCUUUGUAUUAUUUAUCUCUU
B10: Ie_S1_P5E.1_K5.1_C5.1_H5.1_A5.1_F5.1_[+8TTCCT]_T5.1 (ssRNA)
RNA: UCUCUUUGUAUUAUUUCCUUAUCUCUU
B11: Ie_S1_P5E.1_K5.1_C5.1_H5.1_A5.1_[+6TCTCT]_F5.1_T5.1 (ssRNA)
RNA: UCUCUUUGUAUUUCUCUAUUAUCUCUU
B12: Ib_S2_P3E.1_K3.1_C3.1_H3.1_[G2T]_A3.1_F3.1_[A8C]_T3.1 (ssRNA)
RNA: UUUGAUUAAUAUGAUAUCGUUCUUUCUUUUAUAUCUUCUUUCUCGAUAUCAUAUUAAUCUUU
B13: Ib_S2_P3E.1_K3.1_C3.1_H3.1_[A4C]_A3.1_F3.1_[A8C]_T3.1 (ssRNA)
RNA: B12 RNA with U29G, A31C
B14: Ib_S2_P3E.1_K3.1_C3.1_H3.1_[A4G]_A3.1_F3.1_[A8C]_T3.1 (ssRNA)
RNA: B12 RNA with U29G, A31G
B15: Ib_S2_P3E.1_K3.1_C3.1_H3.1_[G2C]_A3.1_F3.1_[A8T]_T3.1 (ssRNA)
RNA: B12 RNA with U29C, C35U
B16: Ib_S2_P3E.1_K3.1_C3.1_H3.1_[T3C]_A3.1_F3.1_[A8C]_T3.1 (ssRNA)
RNA: B12 RNA with U29G, U30C
B17: Ie_S1_P5E.1_K5.1_C5.1_H5.1_A5.1_[+7TTCC]_F5.1_T5.1 (ssRNA)
RNA: UCUCUUUGUAUUAUUCCUUAUCUCUU
B18: Ie_S1_P5E.1_K5.1_C5.1_H5.1_A5.1_[+6CCC]_F5.1_T5.1 (ssRNA)
RNA: UCUCUUUGUAUUCCCAUUAUCUCUU
B19: Ie_S1_P5E.1_K5.1_C5.1_H5.1_A5.1_[+5CTCTC]_F5.1_T5.1 (ssRNA)
RNA: UCUCUUUGUAUCUCUCUAUUAUCUCUU
B20: Ie_S1_P5E.1_K5.1_C5.1_H5.1_A5.1_F5.1_[+8CCCT]_T5.1 (ssRNA)
RNA: UCUCUUUGUAUUAUCCCUUAUCUCUU
B21: Ie_S1_P5E.1_K5.1_C5.1_H5.1_A5.1_[+7CT]_F5.1_T5.1 (ssRNA)
RNA: UCUCUUUGUAUUACUUUAUCUCUU
B22: Ie_S1_P5E.1_K5.1_C5.1_H5.1_A5.1_F5.1_[+8CCCTT]_T5.1 (ssRNA)
RNA: UCUCUUUGUAUUAUCCCUUUAUCUCUU
B23: Ie_S1_P5E.1_K5.1_C5.1_H5.1_A5.1_F5.1_[+8CCTCT]_T5.1 (ssRNA)
RNA: UCUCUUUGUAUUAUCCUCUUAUCUCUU
B24: Ie_S1_P5E.1_K5.1_C5.1_H5.1_A5.1_F5.1_[+8TTC]_T5.1 (ssRNA)
RNA: UCUCUUUGUAUUAUUUCUAUCUCUU
B25: Ie_S1_P5E.1_K5.1_C5.1_H5.1_A5.1_[+7TC]_F5.1_T5.1 (ssRNA)
RNA: UCUCUUUGUAUUAUCUUAUCUCUU
B26: Ie_S1_P5E.1_K5.1_C5.1_H5.1_A5.1_F5.1_[+8CTT]_T5.1 (ssRNA)
RNA: UCUCUUUGUAUUAUCUUUAUCUCUU
B27: Ie_S1_P5E.1_K5.1_C5.1_H5.1_A5.1_[+7CCCT]_F5.1_T5.1 (ssRNA)
RNA: UCUCUUUGUAUUACCCUUUAUCUCUU
B28: Ie_S1_P5E.1_K5.1_C5.1_H5.1_A5.1_F5.1_[+8CCTC]_T5.1 (ssRNA)
RNA: UCUCUUUGUAUUAUCCUCUAUCUCUU
B29: Ie_S1_P5E.1_K5.1_C5.1_H5.1_A5.1_F5.1_[+8CCT]_T5.1 (ssRNA)
RNA: UCUCUUUGUAUUAUCCUUAUCUCUU
B30: Ie_S1_P5E.1_K5.1_C5.1_H5.1_A5.1_[+7CCCTT]_F5.1_T5.1 (ssRNA)
RNA: UCUCUUUGUAUUACCCUUUUAUCUCUU
B31: Ie_S1_P5E.1_K5.1_C5.1_H5.1_A5.1_[+6TTCC]_F5.1_T5.1 (ssRNA)
RNA: UCUCUUUGUAUUUUCCAUUAUCUCUU
B32: Ie_S1_P5E.1_K5.1_C5.1_H5.1_A5.1_F5.1_[+9CCT]_T5.1 (ssRNA)
RNA: UCUCUUUGUAUUAUUCCUAUCUCUU
B33: Ie_S1_P5E.1_K5.1_C5.1_H5.1_A5.1_[+6TTCCT]_F5.1_T5.1 (ssRNA)
RNA: UCUCUUUGUAUUUUCCUAUUAUCUCUU
B34: Ie_S1_P5E.1_K5.1_C5.1_H5.1_A5.1_F5.1_[+8CTC]_T5.1 (ssRNA)
RNA: UCUCUUUGUAUUAUCUCUAUCUCUU
B35: Ie_S1_P5E.1_K5.1_C5.1_H5.1_A5.1_[+7CCTCT]_F5.1_T5.1 (ssRNA)
RNA: UCUCUUUGUAUUACCUCUUUAUCUCUU
B36: Ie_S1_P5E.1_K5.1_C5.1_H5.1_A5.1_[+7CCTC]_F5.1_T5.1 (ssRNA)
RNA: UCUCUUUGUAUUACCUCUUAUCUCUU
B37: Ie_S1_P5E.1_K5.1_C5.1_H5.1_A5.1_[+6TTC]_F5.1_T5.1 (ssRNA)
RNA: UCUCUUUGUAUUUUCAUUAUCUCUU
B38: Ie_S1_P5E.1_K5.1_C5.1_H5.1_A5.1_[+6CTCTC]_F5.1_T5.1 (ssRNA)
RNA: UCUCUUUGUAUUCUCUCAUUAUCUCUU
B39: Ie_S1_P5E.1_K5.1_C5.1_H5.1_A5.1_F5.1_[+8TC]_T5.1 (ssRNA)
RNA: UCUCUUUGUAUUAUUCUAUCUCUU
B40: Ie_S1_P5E.1_K5.1_C5.1_H5.1_A5.1_F5.1_[+9C]_T5.1 (ssRNA)
RNA: UCUCUUUGUAUUAUUCAUCUCUU
B41: Ie_S1_P5E.1_K5.1_C5.1_H5.1_A5.1_[+7TT]_F5.1_T5.1 (ssRNA)
RNA: UCUCUUUGUAUUAUUUUAUCUCUU
B42: Ie_S1_P5E.1_K5.1_C5.1_H5.1_A5.1_F5.1_[+8CCC]_T5.1 (ssRNA)
RNA: UCUCUUUGUAUUAUCCCUAUCUCUU
B43: Ie_S1_P5E.1_K5.1_C5.1_H5.1_A5.1_[+7TTCCT]_F5.1_T5.1 (ssRNA)
RNA: UCUCUUUGUAUUAUUCCUUUAUCUCUU
B44: Ie_S1_P5E.1_K5.1_C5.1_H5.1_A5.1_[+7CCC]_F5.1_T5.1 (ssRNA)
RNA: UCUCUUUGUAUUACCCUUAUCUCUU
B45: Ie_S1_P5E.1_K5.1_C5.1_H5.1_A5.1_F5.1_[+9TCC]_T5.1 (ssRNA)
RNA: UCUCUUUGUAUUAUUUCCAUCUCUU
B46: Ie_S1_P5E.1_K5.1_C5.1_H5.1_A5.1_[+5CCTCT]_F5.1_T5.1 (ssRNA)
RNA: UCUCUUUGUAUCCUCUUAUUAUCUCUU
B47: Ie_S1_P5E.1_K5.1_C5.1_H5.1_A5.1_[+7TCTC]_F5.1_T5.1 (ssRNA)
RNA: UCUCUUUGUAUUAUCUCUUAUCUCUU
B48: Ie_S1_P5E.1_K5.1_C5.1_H5.1_A5.1_[+5TCTCT]_F5.1_T5.1 (ssRNA)
RNA: UCUCUUUGUAUUCUCUUAUUAUCUCUU
B49: Ie_S1_P5E.1_K5.1_C5.1_H5.1_A5.1_[+7TCTCT]_F5.1_T5.1 (ssRNA)
RNA: UCUCUUUGUAUUAUCUCUUUAUCUCUU
B50: Ie_S1_P5E.1_K5.1_C5.1_H5.1_A5.1_F5.1_[+8TCT]_T5.1 (ssRNA)
RNA: UCUCUUUGUAUUAUUCUUAUCUCUU
B51: Ie_S1_P5E.1_K5.1_C5.1_H5.1_A5.1_[+5CCCTT]_F5.1_T5.1 (ssRNA)
RNA: UCUCUUUGUAUCCCUUUAUUAUCUCUU
B52: Ie_S1_P5E.1_K5.1_C5.1_H5.1_A5.1_F5.1_[+8TTT]_T5.1 (ssRNA)
RNA: UCUCUUUGUAUUAUUUUUAUCUCUU
B53: Ie_S1_P5E.1_K5.1_C5.1_H5.1_A5.1_F5.1_[+8CC]_T5.1 (ssRNA)
RNA: UCUCUUUGUAUUAUCCUAUCUCUU
B54: Ie_S1_P5E.1_K5.1_C5.1_H5.1_A5.1_[+5TTCCT]_F5.1_T5.1 (ssRNA)
RNA: UCUCUUUGUAUUUCCUUAUUAUCUCUU
B55: Ie_S1_P5E.1_K5.1_C5.1_H5.1_A5.1_F5.1_[+8CTCTC]_T5.1 (ssRNA)
RNA: UCUCUUUGUAUUAUCUCUCUAUCUCUU

The target of this series is T1, PUF4 RNA-binding domain. The series can be described thus: Mg; RNA-MaP; 20 mM Na-HEPES pH 7.4, 30 mM KOAc, 0.75 mM MgCl2, 0.1% Tween-20, 5% glycerol, 0.1 mg/mL BSA, 2 mM DTT; 25 C; 0.0125-409.6 nM protein. The conditions noted are these: tags: N-His6-TEV cleaved; C-SNAP kept, Cy3B-labelled; label: tethered on chip by stalled RNA polymerase.
For the molecule B1, binding was put at a Kd of 15 nM.
With B2, the dissociation constant (Kd) – broadly, the concentration at which binding is half-saturated – worked out at 32.4 nM.
Turning to B3, the equilibrium dissociation constant (Kd) stood at 76.7 nM.
As for B4, the affinity, expressed as Kd, was 120 nM.
Under B5 stands 16.8 nM; under B6, 98.9 nM.
In turn, B7 gave a Kd of 17.8 nM.
With B8 the figure was 66.2 nM; with B9, 8.84 nM.
With B10 the figure was 17.1 nM.
B11 gave a Kd of 30.9 nM.
Molecule B12 had an equilibrium dissociation constant (Kd) of over 2300 nM.
B13: the dissociation constant (Kd) is 2130 nM.
For the molecule B14, binding was characterised by a dissociation constant (Kd) of 15.7 nM.
Under B15 stands 1310 nM; under B16, over 2300 nM.
With B17 the figure was 13.8 nM.
In turn, B18 displayed an equilibrium dissociation constant (Kd) of 350 nM.
Regarding B19, the Kd stood at 36 nM.
With B20 the figure was 33.5 nM; with B21, 37.3 nM.
For the molecule B22, the Kd was determined as 23.1 nM.
B23: the Kd was 23.1 nM.
B24 registered a Kd of 18.2 nM.
With B25, the Kd worked out at 15.7 nM.
The molecule B26 registered a dissociation constant Kd of 19.2 nM.
With B27, the dissociation constant (Kd) stood at 304 nM.
In turn, B28 had a dissociation constant Kd of 31.9 nM.
For the molecule B29, the Kd was determined as 20.7 nM.
Regarding B30, the Kd was 143 nM.
As to B31, the affinity, expressed as Kd, was 51.8 nM.
In turn, B32 had a Kd of 25.5 nM.
Molecule B33 returned a Kd of 26.7 nM.
On to B34, for which binding was characterised by a dissociation constant (Kd) of 28.6 nM.
The molecule B35 registered a Kd of 412 nM.
In turn, B36 showed a Kd of 428 nM.
B37 showed a Kd of 40.7 nM.
Molecule B38 yielded a Kd of 84.4 nM.
With B39, binding was characterised by a dissociation constant (Kd) of 19.9 nM.
Regarding B40, the Kd is 25.3 nM.
With B41 the figure was 15.6 nM.
B42 yielded a dissociation constant (Kd) of 33.8 nM.
For the molecule B43, the equilibrium dissociation constant (Kd) was determined as 16.7 nM.
Consider B44, for which the Kd was 209 nM.
B45: binding was characterised by a dissociation constant (Kd) of 20.4 nM.
Molecule B46 registered a Kd of 30.3 nM.
B47 showed an equilibrium dissociation constant (Kd) of 22.2 nM.
The molecule B48 came in with a Kd of 29.4 nM.
B49 had a Kd of 40.6 nM.
Under B50 stands 16.7 nM; under B51, 60.4 nM; under B52, 13.4 nM.
The molecule B53 gave a dissociation constant Kd of 26.3 nM.
On to B54, for which the Kd was 30.1 nM.
With B55 the figure was 21.4 nM.
